This note sets out measurements from paper PMC9106297, “Structure of a TRAPPII-Rab11 activation intermediate reveals GTPase substrate selection mechanisms” (Science Advances, 2022).

The chains are these.
B3: Rab11/Ypt32-7xHis (natural protein, S. cerevisiae, UniProt P51996 1-220, looked up)
chain: MSNEDYGYDYDYLFKIVLIGDSGVGKSNLLSRFTTDEFNIESKSTIGVEFATRTIEVENKKIKAQIWDTAGQERYRAITSAYYRGAVGALIVYDISKSSSYENCNHWLTELRENADDNVAVGLIGNKSDLAHLRAVPTDEAKNFAMENQMLFTETSALNSDNVDKAFRELIVAIFQMVSKHQVDLSGSGTNNMGSNGAPKGPTISLTPAPKEDKKKKSSN
notes: Ypt32 (yeast Rab11 paralog), S. cerevisiae; the C-terminal cysteines (residues 221 and 222) were substituted with the 7xHis tag; Made nucleotide-free with calf intestine alkaline phosphatase for the complex with TRAPPII; also called nucleotide-free Rab11/Ypt32; not shown: GST, N-terminal, cleaved; 7xHis, C-terminal, kept

Test in all cases: cryo-EM structure; TRAPPII purified from yeast, incubated with tenfold molar excess of Rab11/Ypt32-7xHis and calf intestine alkaline phosphatase at 4°C overnight (nucleotide-free Rab), complex purified on Calmodulin Sepharose and by SEC; 10 mM tris (pH 8.0), 150 mM NaCl, 0.1% CHAPS, 1 mM Mg acetate, 1 mM dithiothreitol; single-particle cryo-EM
Holding throughout (conditions): both partners purified
(Size exclusion chromatography separates by hydrodynamic size, large species first.)

The test “Rab11/Ypt32-7xHis” deals with B3.
Test [1] addresses T1, Trs31 (TRAPP core subunit, in purified TRAPPII) (S. cerevisiae, UniProt Q03337 1-283).
T1 construct: Trs31, S. cerevisiae, endogenous; source: endogenous, purified from S. cerevisiae as a subunit of TRAPPII
T1 sequence (looked up): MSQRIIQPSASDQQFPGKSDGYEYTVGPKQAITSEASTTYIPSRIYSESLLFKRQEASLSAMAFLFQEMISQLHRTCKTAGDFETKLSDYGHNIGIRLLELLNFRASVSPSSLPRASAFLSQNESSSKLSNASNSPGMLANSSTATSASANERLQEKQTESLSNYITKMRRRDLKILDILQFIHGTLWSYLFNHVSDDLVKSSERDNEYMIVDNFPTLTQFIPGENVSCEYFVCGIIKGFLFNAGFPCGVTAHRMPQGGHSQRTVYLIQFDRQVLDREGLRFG

Test [2] deals with T2, Trs120 (TRAPPII-specific subunit, in purified TRAPPII) (S. cerevisiae, UniProt Q04183 1-1289).
T2 construct: Trs120, S. cerevisiae, endogenous; also called Trs120 lid; source: endogenous, purified from S. cerevisiae as a subunit of TRAPPII
T2 sequence (looked up): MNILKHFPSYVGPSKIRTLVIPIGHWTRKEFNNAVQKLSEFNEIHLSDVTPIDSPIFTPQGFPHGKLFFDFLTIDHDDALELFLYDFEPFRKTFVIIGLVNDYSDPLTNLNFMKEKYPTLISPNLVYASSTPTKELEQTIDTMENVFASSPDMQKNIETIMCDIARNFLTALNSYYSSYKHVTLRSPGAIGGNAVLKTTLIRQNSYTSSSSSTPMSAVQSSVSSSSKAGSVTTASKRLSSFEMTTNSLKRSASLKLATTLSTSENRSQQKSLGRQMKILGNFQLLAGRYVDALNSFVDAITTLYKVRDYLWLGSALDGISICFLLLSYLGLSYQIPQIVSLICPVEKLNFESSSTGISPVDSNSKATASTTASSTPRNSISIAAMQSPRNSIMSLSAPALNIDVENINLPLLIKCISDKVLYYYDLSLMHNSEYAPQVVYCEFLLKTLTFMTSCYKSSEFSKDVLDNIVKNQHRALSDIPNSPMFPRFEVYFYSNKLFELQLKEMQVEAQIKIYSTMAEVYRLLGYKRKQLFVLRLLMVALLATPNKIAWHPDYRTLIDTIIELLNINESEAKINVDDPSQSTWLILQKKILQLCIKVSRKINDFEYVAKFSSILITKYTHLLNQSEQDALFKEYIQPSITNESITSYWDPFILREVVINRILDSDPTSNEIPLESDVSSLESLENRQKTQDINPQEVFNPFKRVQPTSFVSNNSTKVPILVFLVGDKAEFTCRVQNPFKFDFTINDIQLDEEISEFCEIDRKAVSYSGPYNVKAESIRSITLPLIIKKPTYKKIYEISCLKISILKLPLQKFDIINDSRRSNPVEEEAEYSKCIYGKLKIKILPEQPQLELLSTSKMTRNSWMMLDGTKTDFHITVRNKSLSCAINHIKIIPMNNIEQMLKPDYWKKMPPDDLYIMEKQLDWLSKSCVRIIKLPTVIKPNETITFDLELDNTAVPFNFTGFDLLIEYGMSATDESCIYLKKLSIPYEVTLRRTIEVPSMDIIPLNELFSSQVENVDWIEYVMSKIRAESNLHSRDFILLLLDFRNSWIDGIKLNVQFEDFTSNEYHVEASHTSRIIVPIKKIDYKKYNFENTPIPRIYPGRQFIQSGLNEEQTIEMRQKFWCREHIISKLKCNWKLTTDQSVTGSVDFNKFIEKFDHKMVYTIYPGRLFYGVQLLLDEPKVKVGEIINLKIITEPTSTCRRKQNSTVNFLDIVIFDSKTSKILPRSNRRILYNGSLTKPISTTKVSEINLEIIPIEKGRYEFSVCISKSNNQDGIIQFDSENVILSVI

B1: Bet3 (TRAPP core subunit, in purified TRAPPII) (natural protein, S. cerevisiae, UniProt P36149 1-193, looked up)
chain: MVSTTQSRSLKAMGEEIWKNKTEKINTELFTLTYGSIVAQLCQDYERDFNKVNDHLYSMGYNIGCRLIEDFLARTALPRCENLVKTSEVLSKCAFKIFLNITPNITNWSHNKDTFSLILDENPLADFVELPMDAMKSLWYSNILCGVLKGSLEMVQLDCDVWFVSDILRGDSQTEIKVKLNRILKDEIPIGED
notes: Bet3, S. cerevisiae, endogenous; source: endogenous, purified from S. cerevisiae as a subunit of TRAPPII
B1: the binding result with Rab11/Ypt32-7xHis is on record as “binds”.

B2: Trs23 (TRAPP core subunit, in purified TRAPPII) (natural protein, S. cerevisiae, UniProt Q03784 1-219, looked up)
chain: MAIETILVINKSGGLIYQRNFTNDEQKLNSNEYLILASTLHGVFAIASQLTPKALQLTQQTNIENTIPYIPYVGMSSNRSDTRNGGGNNNKHTNNEKLGSFKGDDFFKEPFTNWNKSGLRQLCTDQFTMFIYQTLTGLKFVAISSSVMPQRQPTIATTDKPDRPKSTSNLAIQIADNFLRKVYCLYSDYVMKDPSYSMEMPIRSNLFDEKVKKMVENLQ
notes: Trs23, S. cerevisiae, endogenous; source: endogenous, purified from S. cerevisiae as a subunit of TRAPPII
Turning to B2, the binding result in the test with Rab11/Ypt32-7xHis is listed as “binds”. Consider B3, for which the binding result in test [1] and in test [2] was “binds” in each case.

B4: Trs20 (TRAPP core subunit, in purified TRAPPII) (natural protein, S. cerevisiae, UniProt P38334 1-175, looked up)
chain: MPQYFAIIGKKDNPVYEIEFTNAENPQGFPQDLKELNPFILHASLDIVEDLQWQINPTSQLNGNGGNGSNGGGGFLRSRAVNNTDNCYLGKVDHFYGLAITAYISYSGMKFVMIHGNSANSSVVIDDNNMRSFYQEVHELYVKTLMNPFYKITDPIRSPAFDSRVRTLARKHLSK
notes: Trs20, S. cerevisiae, endogenous; source: endogenous, purified from S. cerevisiae as a subunit of TRAPPII
For B4, the binding result in test [2] is reported as “binds”.

B5: Bet5 (TRAPP core subunit, in purified TRAPPII) (natural protein, S. cerevisiae, UniProt Q03630 1-159, looked up)
chain: MGIYSFWIFDRHCNCIFDREWTLASNSASGTINSKQNEEDAKLLYGMIFSLRSITQKLSKGSVKNDIRSISTGKYRVHTYCTASGLWFVLLSDFKQQSYTQVLQYIYSHIYVKYVSNNLLSPYDFAENENEMRGQGTRKITNRNFISVLESFLAPMVNQ
notes: Bet5, S. cerevisiae, endogenous; source: endogenous, purified from S. cerevisiae as a subunit of TRAPPII
Take B5: the binding result with Rab11/Ypt32-7xHis was “binds”.
